The target of assay [1] is T1, biotinylated GPC3-51mer fragment (human, biotinylated (site not stated)).
T1 construct: Synthesized by Elim Biopharmaceuticals; also called bt-GPC3-51mer; hGPC3-51mer fragment
T1 peptide: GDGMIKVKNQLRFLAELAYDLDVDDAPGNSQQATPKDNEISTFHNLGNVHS
In words: phage ELISA on biotinylated GPC3-51mer.

For assay [2], the target named is T2, cell surface-bound human GPC3 on GPC3+ HepG2 cells (human, UniProt P51654 25-560, GPI anchor and heparin sulfate side chains, as the filing describes native GPC3).
T2 construct: Endogenous GPC3 of the HepG2 line; also called Glypican 3; native GPC3
In words: FACS, phage on GPC3+ HepG2 cells. In general terms: In flow cytometry, cells or beads pass a laser one at a time.
Description: The E-APLPHA™ scFv phage libraries were screened (panned) against human GPC3 by co-incubation with recombinant GPC3-expressing SK-Hep1 cells (SK-Hep1-GPC3), then confirmed by binding to GPC3+ HepG2 cells, both with flow cytometry (see Methods). 0.2 million SK-Hep1-GPC3 cells were co-incubated with the phage library (about 1×10⁷ pfu) for 1 hours at 4° C. The cell/phage mixture was washed in PBST, incubated with mouse anti-M13 antibody for 1 hour at 4° C., washed again in PBST, then incubated for 30 minutes in the dark at 4° C. with PE-conjugated anti-mouse IgG, and subjected to FACS analysis.
FACS was performed as described in Methods. […] Then cells were washed with PBS and fixed.

In assay [3] the target is T2, cell surface-bound human GPC3 on GPC3+ …. Description: FACS on GPC3+ HepG2 cells, labelled on the sheet GPC3A L2K against control L2K; control L2K median 93.8; axis PE-A.
Description: (§1) APC-conjugated anti-His tag mouse antibody (R&D Systems) was added in a volume of 100 μl, a 20-fold dilution of 5% FBS in PBS and 0.05% NaN₃ and incubated for 1 hour at 4° C. in the dark, then washed twice with PBS. The cells were fixed in 3-fold dilution of fixation buffer (BioLegend) in PBS in a volume of 150 μl.
Assay [4] has the same target. Description: flow cytometry at 10 µg/mL, PE anti-mouse IgG detection.
Description: Anti-GPC3 mIgG1 antibodies were tested for the binding towards GPC3-positive HepG2 and GPC3-negative SK-Hep1 cells by flow cytometry. 10 μg/mL of constructed antibody was added to cells on ice for 1 hour.
The target is the same in assay [5]. Description: apparent Kd from FACS on GPC3+ HepG2 cells.
Description: (§2) APC-conjugated anti-His tag mouse antibody (R&D Systems) was added in a volume of 100 μl, a 20-fold dilution of 5% FBS in PBS and 0.05% NaN₃ and incubated for 1 hour at 4° C. in the dark, then washed twice with PBS. The cells were fixed in 3-fold dilution of fixation buffer (BioLegend) in PBS in a volume of 150 μl. As a separate control, HepG2 cells were also incubated with APC-conjugated anti-His tag mouse antibody (R&D Systems) in the absence of any L2K bispecific antibody.
The target in assay [6] is T3, biotinylated recombinant human GPC3(560) (human, biotin on the C-terminal BirA substrate peptide ; Biotin on a lysine of the C-terminal BirA substrate peptide, which is not in the letters.).
T3 construct: Made in E. coli BL21 (pET-27b) from inclusion bodies and biotinylated with BirA; also called bt-GPC3(560); soluble bt-GPC3(560) protein
Description: SPR, Biacore X100, single-cycle kinetics, bt-GPC3(560) captured on chip, 1:1 model. On the technique in general: Surface plasmon resonance follows binding to a sensor surface in real time, without labels.
Description: All of the proteins used in the assay were diluted in HBS-E buffer prior to use. Briefly, 5-10 μg/ml of bt-GPC3₍₅₆₀₎ was immobilized onto a sensor chip pre-functionalized with CAPture Reagent and injected onto the flow cell. Affinity of the L2K bispecific antibodies for immobilized antigen was measured by injection of the various bispecific antibodies at 0.3-5 mg/ml with a 90 second association phase followed by a 90 second dissociation phase at a flow rate of 30 μl/min. At the end of each run, the surface of the sensor chip was regenerated using the reagents provided in the Biotin CAPture kit. Binding constants were determined by nonlinear regression analysis using a 1:1 binding model (BIACORE™ X-100 evaluation software, FIGS. 15A and 15B). The association-on-rate-kₒₙ, affinity constant-kₐ, dissociation constant-kd, and equilibrium dissociation constant-Kd were then calculated for each L2K clone (Table 14).

Assay [7] concerns the target T2, cell surface-bound human GPC3 on GPC3+ …. In words: FACS titration on GPC3+ HepG2 cells, anti-His detection.
Description: as §2
The target is the same in assay [8]. In words: FACS on GPC3+ HepG2 cells, labelled on the sheet GPC3A L2K against control L2K; control L2K median 93.8; axis PE-A. The source holds these as a separate data set.
Description: as §1
In assay [9] the target is T4, full-length human GPC3 over-expressed on SK-Hep1-GPC3 cells (human, UniProt P51654 25-560).
T4 construct: also called GPC3 over-expressing SK-Hep1 cells
Description: FACS, GPC3A L2K on SK-Hep1-GPC3 cells, APC anti-His; same L2K on GPC3-negative SK-Hep1 median 61.6.
Description: Cells were then washed once with PBS. APC-conjugated anti-His tag mouse antibody (R&D Systems) was added to the washed cells in a volume of 100 μl, at 20-fold dilution of 5% FBS in PBS and 0.05% NAN₃ and incubated for 1 hour at 4° C. in the dark. The cells were then washed twice with PBS. The cells were fixed in 3-fold dilution of fixation buffer (BioLegend) in PBS in a volume of 150 μl.

We go through ten molecules from patent US20230048360A1 (EUREKA THERAPEUTICS, published 2023).

What is called koff is the rate constant with which the complex falls apart. As usually defined, the kon is the rate constant with which the complex forms. As usually defined, the EC50 is the concentration needed to bring the measured effect to its halfway point. A high value points to lower potency in that assay.

Read-outs that look alike come from different tables or passages of the source.

B1: GPC3A-43 phage clone (scFv)
scFv: QSVLTQPPSASGTPGQRVTISCSGSSSNIGTNYVYWYQQLPGTAPKLIIYRNNQRPSGVPDRFSGSESGTSASLAISGLRSEDEADYYCAVWDDSLSGVVFGGGTKLTVLGSRGGGGSGGGGSGGGGSLEMAEVQLVQSGAEVKKPGATVKVSCKVSGYTFTDYYMHWVQQAPGKGLEWMGLVDPEDGETIYAEKFQGRVTITADTSTDTAYMELSSLRSEDTAVYYCARELRDVAYYPWGVEDFWGQGTLVTVSS
notes: also called GPC3A-043
B1: in assay [1], the binding result is given as “no binding”.

B2: GPC3A-37 phage clone (scFv)
scFv: QSVLTQPPSVSAAPGQRVTISCSGTRSNIGSDYVSWYQHLPGTAPKLLVYGDNLRPSGIPDRFSASKSGTSATLGITGLQTGDEADYYCGTWDYTLNGVVFGGGTKLTVLGSRGGGGSGGGGSGGGGSLEMAQVQLVESGGGLVQPGGSLRLSCAASGFTFSSYAMSWVRQAPGKGLEWVSVIYSGGSSTYYADSVKGRFTISRDNSKNTLYLQMNSLRAEDTAVYYCARTSYLNHGDYWGQGTLVTVSS
notes: also called GPC3A-037
In the case of B2, the binding result in [1] is on record as “no binding”.

B3: GPC3A-38 phage clone (scFv)
scFv: QSVLTQPPSVSVAPGKTARITCGGNNIGSKSVHWYQQKPGQAPVLVIYYDSDRPSGIPERFSGSNSGNTATLTISRVEAGDEADYYCQVWDSSSDHVVFGGGTKLTVLGSRGGGGSGGGGSGGGGSLEMAQVQLVQSGAEVKKPGASVKVSCKASGYTFTSYYMHWVRQAPGQGLEWMGIINPSGGSTSYAQKFQGRVTMTRDTSTSTVYMELSSLRSEDTAVYYCARKVTGYDSWGQGTLVTVSS
notes: also called GPC3A-038
As for B3, the binding result in assay [2] was “binds”.

B4: GPC3A-42 phage clone (scFv)
scFv: SYVLTQPPSASGTPGQRVTISCFGSSSDIGSNSVFWYQQLPGAAPKLLIYSTQYRPSGVPDRFSGSKSGTSASLAISGLQSEDEAEYHCATWDDSLNGYVFGSGTKVTVLGSRGGGGSGGGGSGGGGSLEMAQVQLQQSGAEVKKPGASVKVSCKASGYSFTGYYVYWMRQAPGKGLEWMGWMNPRSGGTNYAQKFQGRVTMTRDTSISTAYMELSRLTSDDTAVYYCARSSYYWADSWGQGTLVTVSS
notes: also called GPC3A-042
Turning to B4, the binding result in assay [1] is listed as “no binding”.

B5: #64 GPC3A L2K (bispecific antibody)
tandem di-scFv: LPVLTQPPSLSVAPGKTARLTCGGNNIGSKSVHWYHQKPGQAPVLVVYDDTDRPSGIPERFSGSNSGNTAALTISRVEVGDEADYYCQVWDRSSAHWVFGGGTKLTVLGSRGGGGSGGGGSGGGGSLEMAQMQLVQSGAEVKKPGASVKVSCKASGYTFTIYGISWVRQAPGQGLEWMGWISPYNDNTIYAQKVQGRVTMTTDTSTSTAYMELRSLRSDDTAVYYCARMGVGWGYAQDSWGQGTLVTVSSTSGGGGSDVQLVQSGAEVKKPGASVKVSCKASGYTFTRYTMHWVRQAPGQGLEWIGYINPSRGYTNYADSVKGRFTITTDKSTSTAYMELSSLRSEDTATYYCARYYDDHYCLDYWGQGTTVTVSSGEGTSTGSGGSGGSGGADDIVLTQSPATLSLSPGERATLSCRASQSVSYMNWYQQKPGKAPKRWIYDTSKVASGVPARFSGSGSGTDYSLTINSLEAEDAATYYCQQWSSNPLTFGGGTKVEIKHHHHHH
notes: also called GPC3A-64 L2K; GPC3-64 L2K
Turning to B5, the “Median : PE-A” value in assay [3] came out at 6600.

B6: anti-GPC3 mIgG1 clone A-51 (antibody, V domains shown)
VH: QVQLVQSGAEVKKPGSSVKVSCKASGGAFSSYAISWVRQAPGQGLEWMGGIIPIFGTANYAQKFQGRVTITADESTSTAYMELSSLRSEDTAVYYCARMLYLSGRYYWDSWGQGTLVTVSS
VL: QAVLTQPSSASGAPGQRVTISCTGGSSNIGAGYDVHWYQQLPGTAPKLLIYGNSNRPSGVPDRFSGSKSGTSASLAITGLQAEDEADYYCQSYDSSLSGYVFGTGTKVTVLG
notes: Fused to mouse IgG1 heavy chain and light chain constant regions
For the molecule B6, the binding result in [4] is listed as “binds”.

B7: GPC3A-62 phage clone (scFv)
scFv: QSVLTQPPSVSGAPGQRVTISCTGSSSNIGAGYDVHWYQQLPGTAPKLLIYGNSNWPSGVPDRFSGSKSGTSASLAITGLRAEDEADYYCQSYDSSLSGSYVFGTGTKVTVLGSRGGGGSGGGGSGGGGSLEMAQMQLVQSGSELKKPGASVKVSCKASGGTFSSYAISWVRQAPGQGLEWMGGIIPKIGTANYAQKFQGRVTITADESTSTAYMELSSLRSEDTAMYYCARMYMDMGWGWGYWDWWGQGTLVTVSS
notes: also called GPC3A-062
As for B7, the binding result in assay [2] is reported as “binds”.

B8: GPC3A-58 L2K (bispecific antibody)
chain: QSVLTQPPSVSVAPGKTARITCGGNNIGSKSVHWYQQKPGQAPVLVVYDDSDRPSGIPERFSGSNSGNTATLTISRVEAGDEADYYCQVWDSSSDHVFGTGTKVTVLGSRGGGGSGGGGSGGGGSLEMAQVQLVQSGADVRKPGASVKVSCKASGYTFASHGISWVRQAPGQGLEWLGWISPYTGNTNYAQKFQGRVTMATDTSTSTAYMELRSLRSDDTAIYYCARGKRTLASCFDYWGQGTLVTVSSTSGGGGSDVQLVQSGAEVKKPGASVKVSCKASGYTFTRYTMHWVRQAPGQGLEWIGYINPSRGYTNYADSVKGRFTITTDKSTSTAYMELSSLRSEDTATYYCARYYDDHYCLDYWGQGTTVTVSSGEGTSTGSGGSGGSGGADDIVLTQSPATLSLSPGERATLSCRASQSVSYMNWYQQKPGKAPKRWIYDTSKVASGVPARFSGSGSGTDYSLTINSLEAEDAATYYCQQWSSNPLTFGGGTKVEIKHHHHHH
notes: also called GPC3A L2K bispecific antibody #58
On to B8, for which, in assay [5], the Kd was 2.4 nM. Besides, in assay [6], the Kd is 5.1 nM, the koff amounted to 0.00188 s⁻¹ and the kon came to 368000 M⁻¹ s⁻¹. For the same molecule, the EC50 in assay [7] is 0.12 µg/mL. Further, the “Median : PE-A” value in [3] was found to be 8030.

B9: anti-GPC3 mIgG1 clone A-64 (antibody, V domains shown)
VH: QMQLVQSGAEVKKPGASVKVSCKASGYTFTIYGISWVRQAPGQGLEWMGWISPYNDNTIYAQKVQGRVTMTTDTSTSTAYMELRSLRSDDTAVYYCARMGVGWGYAQDSWGQGTLVTVSS
VL: LPVLTQPPSLSVAPGKTARLTCGGNNIGSKSVHWYHQKPGQAPVLVVYDDTDRPSGIPERFSGSNSGNTAALTISRVEVGDEADYYCQVWDRSSAHWVFGGGTKLTVLG
notes: as for B6
B9: the binding result in assay [4] was “binds”.

B10: GPC3A-46 L2K (bispecific antibody)
chain: QAVLTQPPSVSGTPGQRVTISCSGSSSNFGSNTVHWYQQVPGTAPKLLIFSNTQRPSEIPDRFSGSKSGTSASLAISGLQSEDEADYYCAAWDDSLTGVVFGGGTKLTVLGSRGGGGSGGGGSGGGGSLEMAQVQLVQSGAEVKKPGASVTVSCKASGYRFSNYGVSWVRQAPGQGLEWMGWISGSNGNTNYAQKFLGRVTMTTDTSTTTAYMELSSLRSDDTAVYYCARGNRRYYSPIIDPWGQGTLVTVSSTSGGGGSDVQLVQSGAEVKKPGASVKVSCKASGYTFTRYTMHWVRQAPGQGLEWIGYINPSRGYTNYADSVKGRFTITTDKSTSTAYMELSSLRSEDTATYYCARYYDDHYCLDYWGQGTTVTVSSGEGTSTGSGGSGGSGGADDIVLTQSPATLSLSPGERATLSCRASQSVSYMNWYQQKPGKAPKRWIYDTSKVASGVPARFSGSGSGTDYSLTINSLEAEDAATYYCQQWSSNPLTFGGGTKVEIKHHHHHH
As to B10, in [5], the Kd worked out at 1 nM. Also, in assay [6], the Kd is 3.2 nM, the koff was found to be 0.00129 s⁻¹ and the kon was determined as 399000 M⁻¹ s⁻¹. The “Median : PE-A” value in assay [8] came out at 9860. Further, the EC50 in assay [7] was 0.05 µg/mL. Also, the “Median : APC-A” value in assay [9] is 657.
